In the nanobody polyreactivity screen of Harvey et al. (2022):

Test: yeast display, Sf9 membrane polyspecificity reagent, FACS + sequencing; frameworks hold sequencing errors
Outline: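 Sorting gates, low and high (top ~1%), were placed on anti-HA fluorescence to track expression and on streptavidin fluorescence to track reagent binding. A clone's polyreactivity label is taken from the gate it came out of. The reagent was 10% biotinylated, detergent-solubilized Sf9 membrane, applied for 1 hour at 4 °C to galactose-induced yeast display cells.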

Row | Sequence | polyreactivity (PSR sort gate)
1 | QVQLVESGGGLVQAGGSLRLSCAASGSIFRGNAMGWYIQAPGKERELVAGINRAGSTKYADSVKGRFTISRDNAKNTVYLQMNSLKPEDTAVYYCAAVRYVRCLWSDYWGQGTKVTVSS | high polyreactivity
2 | QVQLVESGGGLVQAGGSLRLSCAASGRTFYRYAMGWYRQAPGKERELVAAISSGGSTYYADSVKGRFTISRDNAKNTVYLQMNSLKPEDTAVYYCNADYGRRNHMDYWGQGTQVTVSS | low polyreactivity
3 | QVQLVESGGGLVQAGGSLRLSCAASGYTLGYYAMGWYRQAPGKERELVASITERGGSTYYADSVKGRFTISRDNAKNTVYLQMNSLKPEDTAVYYCAADWDPSWWLFPTSSYDYWGQGTQVTVSS | low polyreactivity
4 | QVQRVESGGGLVQAGGSLRLSCAASGSNFDKNPMGWYRQAPGKEREVVAAISRSGGSTNYADSVKGRFTISRDNAKTTDFLLMYSVKPEDTAVYYFAAQSRYWTYDSWGQGTQVNVSS | high polyreactivity
5 | QVQLVESGGGLVQAGGSLRLSCDAYGSTFERYVMGWYCQRLGKKGSWLPVLNHNGGSTYYADSVKGRFTISRDNAKNTVYLQMNSLKPEVTAVYYCAPSFRTVLDDGYWGQGSQVTVSS | low polyreactivity
6 | QVQLVESGGGLVQAGGSLRLSCAASGRTFTINAMGWYRQAPGKERELVATISYSGGSTRYADSVKGRFTISRDNAKNTVYLQMNSLQPDDTAVYYCAADAGYYGRWYGHGYGYWGQGTQVTVSS | high polyreactivity
7 | QVQLVDSGGGLVQAGGSLRLSCAASGRTYTYYAMGWYRQAPGKERELVAAISKSGGSTYYADSVKGRFTISRDNAKNTVYLQMNSLKPEDTAVYYFAKVYRYSSLYYYWGQGTQVTVSS | low polyreactivity
8 | QVQLVESGGGLVQAGGSLRLSCAASAYNFDGYAMGWYRQAPGKERELVAAINSGGGTYYADSVKGRFTISRDNAKNTVYLQMNSLKPEDTAVYYCAKYTYDYWGQGTQVTVSS | low polyreactivity
9 | QVQLVESGGGLVQAGGSLRLSCAASGNIFQRYAMGWYRQAPGKERELVAAISGNGGNTFYADSVKGRFTISRDNAKNSVYLQMNSLKPEDTAVYYCNTVYVVYGYDYWGQGTQVTVSS | high polyreactivity
10 | QVQLVESGGGLVQAGGSLRLSCAASGFIFRYYTMGWYRQAPRKERELVASITSGGSTYYADSVKGRFTSSRDNAKNTVYLQMNCLKPEDTAVYSCAKHRDVLWRYKYWGQGTQVTVSS | high polyreactivity
11 | QVQLVESGGGLVQAGGSLRLSCAASGNTFRIYTMVWYRQAPGKERELVATITRRGGSTYYADSVKGRFTISRDNAMNTVYLQMNSLKPEDTVVYYCAARVRGTGVYGGYNYWGQGTLVTVSS | high polyreactivity
12 | QVQLVESGGGLVQAGGSLRLSCAASGLIFHQYAMGWYRQAPGKERELVAAITRSGTRTYYADSVKGRFTISRDNAKNTVYLQMNSLKPEDTAVYYCNKALRTYPLFYYWGQGTQVTVSS | high polyreactivity
13 | QVQLVESGGGLVQAGGSLRLSCAASGIIFGRNAMGWYRPAPGKERELVAVITGGGGRTYYADSVKGRFTISRDNAKKTVYLQMNSLKPEDTAVYYCNKDYRRNLAYFKEPGVPVDYWGQGTQVTVSS | low polyreactivity
14 | QVQLVESGGGLVQAGGSLRLSCAASGITFDRNVMGWYRKSPGKETELVAAISKSGGRTYYADSVKGRFTISRDIAKNTVYLQMNSLKTEDTAVYDCNADFYSRKSLHQYDYWGQGTQVTVSS | high polyreactivity
15 | QVQHVESGGGLVQAGGSLRLSCAASGRIIRRNARGSYRLAPGKERELVAAISWSGGSTYYADSVKGRFTISRDNAKNSVDLQMNSLKQEDTAVYYCAAVPCYTGDYWGQGTQVTVSS | low polyreactivity
16 | QVQLVESGGGLVQAGGSLRLSCAASGSIFYRYAMGWYRQAPGKERELVAAIRWSGGSTYYADSVKGRFTISRDNAKNTVYLQMNSLKPEDTAVYYCATEVSSGGYWSWYGYWGQGTQVTVSS | low polyreactivity
17 | QVQLVESGGGLVHAGGSLRLSCAASGNTFWPYAMGWYRQAPGKERELVAAINYSGTRTYYSDSVKGRFTISRDNAKNTVYLQMNSLKPEDTAVYYCAKATSPPGTTAGGYDYWGQGTQVTVSS | low polyreactivity
18 | QVQLVESGGGLVQAGGSLRLSCAASGSTFRKYAMGWYRQAPGKEREFVAAITWSTGTTYYADSVKGRFTISRDNAQNTVYLQMNSLKPEDTAVYYCSADSKPPHELYESIEHESWGQGTQVTVSA | low polyreactivity
19 | QVQLVESGGGLVQAGGSLRVSCAASGSTFYYYAMGGYSQAPGKERELVAAISSRGGSTYYADSVKGRFRISRDNAKNTVYLQMNSLKPEDTAVYYCAASSQRISPDHDYWGQGTQVTVSS | high polyreactivity
20 | QVQLVESGGGLVQAGGSLRLSCAASGIIFSIYAMGWYRQAPGKERELVAVISRSSGSTYYADSVKGRFTISRDNAKNTVYLQMNSLKPEDTAVYYCAADRYSYGSNGYPRFEYYYWGQGTQVTVSS | high polyreactivity
21 | QVQLVESGGGLVQAGGSLRLSCAASGHIYVRYAMGWYRQAPGKERELVAAITSGGSTYYADSVKGRFTISRDNAKNTVYLQMNSLKPEDTAVYYCAARKQQYRFTHDYWGQGTQVTVSS | high polyreactivity
22 | QVQLVESGGALVQAGGSLRLTCAASGRIYTRYAMGWNRKATGKERELVAVITRSGGSTYYADSVKGRFTISRDNGKNTVYLQMNSLNPEVTAVYDCAAKYYGEMYYWGQGTQVTVSS | low polyreactivity

Row | Sequence | polyreactivity (PSR sort gate)
23 | QVQLVESGGGLVQAGGSLRLSCAASGSIFGYYAMGWYRQAPGKERELVAAISWSDGSTYYADSVKGRFTISRDNAKNTVYLQMNMLKPEDTAVYYCAARFTPYITSDDGHYDYWGQGTQVTVSS | low polyreactivity
24 | QVQLVESGGGLVQAGGSLRLSCAASGYTLRIYAMGWYRQAPGKEREMVAAISRSGGRTFYADSVKGRFTISRDNAKNTVYLQMNSLKPEDTAVYYCAADPRSYDTGRMDYWGQGTQVTVSS | high polyreactivity
25 | QVQLVESGGGLVQAGGSLRLSCAASGSIFKGYAMGWYRQAPGKERELVAAISRTGGSTYYADSVKGRFTISRDYAKNTVYLQMNSLKPEDTAVYYCAAYSASTYDSWGQGTQVTVSS | high polyreactivity
26 | QVQLVESGGGLVQAGGSLRLSCAASGLTFVDNAMGWYRQAPGQERELVAAITKRGGRTYYADSVKGRFTISRDNAKNTVYLQMNSLKPEDTAVNYCARESGNDSSRRLDYWGQGSQVTVSS | low polyreactivity
27 | QVQLVESGGGLVQAGGSLRLSCAASGITFSFYAMGWYRPAPGKERELVAAINGRGGRTYYADSVKGRFTISRDNAKNTVYLQMNSLKPEDTAVYYCAAVVWRTDYDYWGQGTQVTVSS | low polyreactivity
28 | QVQLVESRGGLVQAGGSLRLSCAAYGFTFPNNAMGWNRQAPGKERELVAAITWSGRSTYADSVKGRFTISRDNAKNTVYLQMNSLKPEDTAVDYCYTRGTYLSKTLPSAYDYWGQGTQVIVSS | low polyreactivity
29 | QVQLVESGGGLVQAGGSLRLSCAASGFTFGKYAMGWYRQAPGKERELVAAITWSGGRTYYADSVKGRFTISRDNAKNTVYLQMNSLKPEDTAVYYCNKVYLYSSLARPYDYWGQGTQVTVSS | high polyreactivity
30 | QVQLVESGGGIVQAGGSLRLSCAASGGTCWFYDMGWYRQAPGKERELVAAINSDGSTYYADSVKGRFTISRDNAMNTVYLQMNSLQPEDTAVYYCAADISLHWYYYRRYNYWGQGTQGTVSS | low polyreactivity
31 | QVQLVESGGGLVQAGGSLRLSCAASGSILWQYAIGRYRQAPGKEMELVAAINQRGGSTYYADSVKGRFTISRDYAKNTVYLQMNSLKPEDTAVYYCNTYPTRTYPSYYYWGQGTQVTVSS | high polyreactivity
32 | QVQLEESGGCIVQAGGSHRLSCAASGRTFTLNAMGWYRQAPGKEREFVAAISNSGVRTYYADSVKGRFTISRDNAKNTVFLQMNSLKPEDTGVYYCARTYQVGDSIDDYWGQGTQVNVSS | low polyreactivity
33 | QVQLVESGGGLVQAGGSLRLSCAASGRIFTQNAMGWNRQAPGKERELVAAISYSGVSTYYADSVKGRFTISRDNAKNTVYLQMNSLKPEDTAVFYCARRYWYPDAFYRYDYWGLGTQVTVSS | low polyreactivity
34 | QVQLEESGGGVVQAGGSLRLSCAASGSIFRKYAMGWYRQAPGKERELVATISWNGGRTHYADSVKGRFTISRDNAKNTVYLLMNSLKPEDTAVYYCNKDAASFRHFYGYGYWGQGTQVTVSS | low polyreactivity
35 | QVQLLESGGGLVQAGVSLRLRCAPSGGTHKYYTMALYRQAPGKERELDATIRWYGDSTSYADSVKGRFTISRDNAKNTVYLQMNSQNPEDTAVYSCNADYAWYQRKSTVEYDYWVQGTQVTVSS | low polyreactivity
36 | QVQLVESGGGLVQAGGSLRLSCAASGSIFNYYGMGWYRQAPGKERELVAAISYSGGSTYYADSVKGRFTISRDNAKNTVYLQMNSLKPEDTAVYYCAKRYYPVIRYHSTYDSWGQGTQVTVSS | low polyreactivity
37 | QVQLVESVGGLVQAGGSLRLSCAASGFTFNGYAMGWYRQAPGKERELVAAINISGGSTYYADSVKGRFTISRDNAKNTVYLQMNSLKPEDTAVYYCAARLWGIRYSYRYGYWGQGTQVTVSS | high polyreactivity
38 | QVQLVESGGGLVQAGGSLRLSCAASGFIFYSKAMGWYRQAPGKERELVAAISWGGGRTYYADSVKGRFTISRDNAKNTVYLQMNSLKPEDTAVYYCAAPWRRIGYSTRGYTLYDYWGQGTQVTVSS | high polyreactivity
39 | QVQLVETGGGLVQAGGSLRLSCAASGNHFSTYTMGGYRQAPGKERELVAAISTSGTSTYYADSVKGRFTISRDNAKNTVYLQMNSLKPEDTAVYYCAASYLRSSQRMDYWGQGTQVTVSS | low polyreactivity
40 | QVQLVESGGGLVQAGGSLRLSCAASGRNITANAMGWYRQAPGKEREFVAAINVSGGSTYYADSVKGRFTISRDNAKNTVYFQMNSLKPEDTAVYYCNADYYYYDIYWWQMDYWGLGTQVTVSS | low polyreactivity
41 | QVQLVESGGGLDQAGGSLRLSCAASGSIFDTYAMGWYIQAPGKSWELVAAISWGGGSTYYADSVKGRFTISRDNAKNTVYLQMNSLKPEDTAVYYCATEYFFLGGWYEYWGQGTQVTVSS | high polyreactivity
42 | QVQLVESGGGLVQAGGSLRLSCAASGRISTFYAMGWYRQAPGKERELVAGIRWRGGSTYYADSVKGRFTISRDNAKNTVYLQMNSLKAEDTAVYYCYSMDYWGQGTQVTVSS | high polyreactivity
43 | QVQLVESGGGLVQAGGSLRLSCAASGSTFSEYAMGCYRQAPGKERELVAAITWDGGSTYYPDSVKGRFTISRDNAKNTVYLQMNSLKPEDTAVYYCATDGWSYSYGYWGQGTQVTVSS | low polyreactivity
